# IntAct's records for PubMed 18832153
# B1: Structural maintenance of chromosomes protein 1A (Homo sapiens), Q14683 (parent)
# chain: MGFLKLIEIENFKSYKGRQIIGPFQRFTAIIGPNGSGKSNLMDAISFVLGEKTSNLRVKTLRDLIHGAPVGKPAANRAFVSMVYSEEGAEDRTFARVIVGGSSEYKINNKVVQLHEYSEELEKLGILIKARNFLVFQGAVESIAMKNPKERTALFEEISRSGELAQEYDKRKKEMVKAEEDTQFNYHRKKNIAAERKEAKQEKEEADRYQRLKDEVVRAQVQLQLFKLYHNEVEIEKLNKELASKNKEIEKDKKRMDKVEDELKEKKKELGKMMREQQQIEKEIKEKDSELNQKRPQYIKAKENTSHKIKKLEAAKKSLQNAQKHYKKRKGDMDELEKEMLSVEKARQEFEERMEEESQSQGRDLTLEENQVKKYHRLKEEASKRAATLAQELEKFNRDQKADQDRLDLEERKKVETEAKIKQKLREIEENQKRIEKLEEYITTSKQSLEEQKKLEGELTEEVEMAKRRIDEINKELNQVMEQLGDARIDRQESSRQQRKAEIMESIKRLYPGSVYGRLIDLCQPTQKKYQIAVTKVLGKNMDAIIVDSEKTGRDCIQYIKEQRGEPETFLPLDYLEVKPTDEKLRELKGAKLVIDVIRYEPPHIKKALQYACGNALVCDNVEDARRIAFGGHQRHKTVALDGTLFQKSGVISGGASDLKAKARRWDEKAVDKLKEKKERLTEELKEQMKAKRKEAELRQVQSQAHGLQMRLKYSQSDLEQTKTRHLALNLQEKSKLESELANFGPRINDIKRIIQSREREMKDLKEKMNQVEDEVFEEFCREIGVRNIREFEEEKVKRQNEIAKKRLEFENQKTRLGIQLDFEKNQLKEDQDKVHMWEQTVKKDENEIEKLKKEEQRHMKIIDETMAQLQDLKNQHLAKKSEVNDKNHEMEEIRKKLGGANKEMTHLQKEVTAIETKLEQKRSDRHNLLQACKMQDIKLPLSKGTMDDISQEEGSSQGEDSVSGSQRISSIYAREALIEIDYGDLCEDLKDAQAEEEIKQEMNTLQQKLNEQQSVLQRIAAPNMKAMEKLESVRDKFQETSDEFEAARKRAKKAKQAFEQIKKERFDRFNACFESVATNIDEIYKALSRNSSAQAFLGPENPEEPYLDGINYNCVAPGKRFRPMDNLSGGEKTVAALALLFAIHSYKPAPFFVLDEIDAALDNTNIGKVANYIKEQSTCNFQAIVISLKEEFYTKAESLIGVYPEQGDCVISKVLTFDLTKYPDANPNPNEQ
# partner: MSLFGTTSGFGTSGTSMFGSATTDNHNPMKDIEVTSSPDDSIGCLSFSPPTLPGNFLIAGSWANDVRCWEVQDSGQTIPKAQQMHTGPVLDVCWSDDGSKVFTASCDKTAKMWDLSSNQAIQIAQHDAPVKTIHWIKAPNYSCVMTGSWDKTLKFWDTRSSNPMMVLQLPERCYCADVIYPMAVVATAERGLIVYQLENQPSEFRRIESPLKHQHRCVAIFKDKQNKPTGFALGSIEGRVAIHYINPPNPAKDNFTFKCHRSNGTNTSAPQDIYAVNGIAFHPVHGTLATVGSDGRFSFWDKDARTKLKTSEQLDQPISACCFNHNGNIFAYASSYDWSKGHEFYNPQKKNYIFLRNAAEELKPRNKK
# Variants of: B1
# Settings: with rae1l_human RAE1, P78406
row,effect of a mutation on the interaction,Variant
1,decreasing interaction,S957A
2,decreasing interaction,S966A
